{"source": "patent US20080242590A1", "about": "“New Method 706” (ASTRAZENECA AB, priority 2007, published 2008)", "key": {"[1]": {"experiment": "Plasma exposure in C57BL/6 mice (Example 26)", "type": "in vivo", "settings": "25 mg/kg single injection", "description": "(§1) 21-23 weeks old female APPSWE-tg mice and 24 weeks old female C57BL/6 mice (6 mice/group) received vehicle or mFc-Nep at 5 or 25 mg/kg as a single intravenous injection and Aβ40 was analysed at different time points after injection (between 1.5-336 hours, i.e., up to 2 weeks). M-550426 was administrated per orally at 300 μmol/kg 3 hours before termination. For both mouse models, APPSWE-tg and C57BL/6, a positive control and blank groups were included. The following groups were included for the APPSWE-tg mice: 25 mg/kg: 1.5, 72, 168 and 336 hours; 5 mg/kg): 336 hours (2 weeks). For C57BL/6 mice: 25 mg/kg: 168 and 336 hours; 5 mg/kg): 1.5, 168 and 336 hours. […] Blood collection and plasma processing were basically as described in Example 25 The analysis of mouse Aβ40 levels in plasma of C57BL6 mice was as described in Example 25 The analysis of human Aβ40 and Aβ42 levels in plasma of APPSWE-tg mice was as described in Example 25 (as described in the last APP-tg study)."}, "[2]": {"test_system": "human Aβ42", "experiment": "Human Aβ42 in plasma, time-response after single i.v. dose (Example 26)", "type": "in vivo, APPSWE-tg mice", "settings": "25 mg/kg single i.v."}, "[3]": {"experiment": "Plasma exposure in APPSWE-tg mice (Example 26)", "type": "in vivo", "settings": "single intravenous injection of 25 mg/kg", "description": "as §1"}, "[4]": {"experiment": "Observations of animal health (Example 26)", "type": "in vivo, APPSWE-tg mice and C57BL/6 mice", "settings": "5 or 25 mg/kg single i.v., up to 336 hours", "description": "as §1"}, "[5]": {"test_system": "Aβ 1-42", "experiment": "Degradation of Aβ 1-42 in human plasma pool (Example 28)", "type": "biochemical", "settings": "room temperature, 1 hour", "description": "(§2) Blood from twelve individuals (6 females and 6 males) were collected into pre-chilled heparin-plasma tubes at the healthcare centre (AstraZeneca) at three different time points. Plasma was prepared by centrifugation at 2500×g for 20 min at 4° C. Plasma samples were collected and transferred to pre-chilled polypropylene tubes and immediately frozen and stored at −70° C. prior to use. Plasma was thawed and pooled from 12 individuals just before the experiment. Aβ 1-40 and 1-42 in plasma pool was degraded by human Fc-Nep or mouse Fc-Nep with corresponding vehicles (50 mM Tris-HCl, 150 mM NaCl pH 7.5). The following final concentrations of the Fc-Nep constructs were used, 100, 32, 10, 3.2, 1, 0.3, 0.1 and […] and the degradation occurred at room temperature for 1 hour while shaking on an orbital shaker. The enzymatic reaction was stopped by adding Phosphoramidone (10 μM final concentration). Concentration of amyloid β 1-40 in human plasma pool was measured using ELISA kit (Biosource; KHB3481) according to the manufacturers instructions.\nA final concentration of 4.7 mM EDTA was added to the tubes before the concentration of Aβ42 was analyzed using ELISA kit Innotest® β-Amyloid1-42 (Innogenetics, lot#177462, ref#80177) according to the manufacturers instructions."}, "[6]": {"test_system": "human Aβ40", "experiment": "Human Aβ40 in plasma, time-response after single i.v. dose (Example 26)", "type": "in vivo, APPSWE-tg mice", "settings": "25 mg/kg single i.v.", "description": "(§3) The objective of this study was to evaluate the time-response relationship of the mouse version of the Fc-Nep (mFc-Nep, SEQ ID NO 14) in plasma of female APPSWE-tg mice and C57BL/6 mice after a single dose. The specific purpose is to find out how long the reducing effect of mFc-Nep on Aβ stays in the plasma, and to correlate the effect to the level of exposure of test compound in plasma. The γ-secretase inhibitor M-550426 is included as a positive compound.\n(§4) 21-23 weeks old female APPSWE-tg mice and 24 weeks old female C57BL/6 mice (6 mice/group) received vehicle or mFc-Nep at 5 or 25 mg/kg as a single intravenous injection and Aβ40 was analysed at different time points after injection (between 1.5-336 hours, i.e., up to 2 weeks). M-550426 was administrated per orally at 300 μmol/kg 3 hours before termination. For both mouse models, APPSWE-tg and C57BL/6, a positive control and blank groups were included. The following groups were included for the APPSWE-tg mice: 25 mg/kg: 1.5, 72, 168 and 336 hours; 5 mg/kg): 336 hours (2 weeks). For C57BL/6 mice: 25 mg/kg: 168 and 336 hours; 5 mg/kg): 1.5, 168 and 336 hours. […]"}, "[7]": {"test_system": "mouse Aβ40", "experiment": "Mouse Aβ40 in plasma, time-response after single i.v. dose (Example 26)", "type": "in vivo, C57BL/6 mice", "settings": "25 mg/kg single injection, 2 weeks (336 hours)", "description": "as §3, §4"}, "[8]": {"test_system": "Aβ 1-42", "experiment": "Degradation of Aβ 1-42 in APPswe-tg mouse plasma pool (Example 28)", "type": "biochemical", "settings": "room temperature, 1 hour", "description": "Mouse plasma collected from 9 animals was stored at −70° C. Plasma was thawed and pooled just before the experiment. Aβ 1-40 and 1-42 in plasma pool was degraded by human Fc-Nep or mouse Fc-Nep with corresponding vehicles (50 mM Tris-HCl, 150 mM NaCl pH 7.5). The following final concentrations of the Fc-Nep constructs were used, 100, 32, 10, 3.2, 1, 0.3, 0.1 and […] and the degradation occurred at room temperature for 1 hour while shaking on an orbital shaker. The enzymatic reaction was stopped by adding Phosphoramidone (10 μM final concentration).\nAfter degradation, a final concentration of 4.7 mM EDTA was added to the tg-mouse plasma tubes and the plasma samples were diluted 3 times in sample diluent, before the concentration of Aβ42 was analyzed using ELISA kit Innotest® β-Amyloid1-42 (Innogenetics, lot#177462, ref#80177) according to the manufacturers instructions. The highest concentration (100 μg/ml) of human Fc-Nep and mouse Fc-Nep degraded human plasma amyloid β 1-40 by 71% and 77%, respectively and Aβ 1-42 by 34% and 53%, respectively, as compared to plasma without Fc-Nep treatment."}, "[9]": {"test_system": "amyloid β 1-40", "experiment": "Degradation of Aβ 1-40 in human plasma pool (Example 28)", "type": "biochemical", "settings": "room temperature, 1 hour", "description": "as §2"}, "[10]": {"test_system": "amyloid β 1-40", "experiment": "Degradation of Aβ 1-40 in APPswe-tg mouse plasma pool (Example 28)", "type": "biochemical", "settings": "room temperature, 1 hour", "description": "Mouse plasma collected from 9 animals was stored at −70° C. Plasma was thawed and pooled just before the experiment. Aβ 1-40 and 1-42 in plasma pool was degraded by human Fc-Nep or mouse Fc-Nep with corresponding vehicles (50 mM Tris-HCl, 150 mM NaCl pH 7.5). […] The enzymatic reaction was stopped by adding Phosphoramidone (10 μM final concentration).\nAfter degradation, before concentration of amyloid β 1-40 in tg-mouse plasma pool was measured using ELISA kit (Biosource; KHB3481), the plasma samples were diluted 20 times in standard diluent buffer, according to manufacturers instructions."}, "[11]": {"settings": "highest concentration 100 μg/ml"}}, "data": [{"molecule": "mFc-Nep: mouse version of the Fc-Nep, SEQ ID NO 14 (protein, listed as Mus musculus) METDTLLLWVLLLWVPGSTGDVPRDCGCKPCICTVPPVSSVFIFPPKPKDVLTITLTPKVTCVVVAISKDDPEVQFSWFVDDVEVHTAQTQPREEQFASTFRSVSELPIMHQDWLNGKEFKCRVNSAAFPAPIEKTISKTKGRPKAPQVYTIPPPKEQMAKDKVSLTCMITDFFPEDITVEWQWNGQPAENYKNTQPIMNTNGSYFVYSKLNVQKSNWEAGNTFTCSVLHEGLHNHHTEKSLSHSPGKYDDGICKSSDCIKSAARLIQNMDASVEPCTDFFKYACGGWLKRNVIPETSSRYSNFDILRDELEVILKDVLQEPKTEDIVAVQKAKTLYRSCINESAIDSRGGQPLLKLLPDIYGWPVASDNWDQTYGTSWTAEKSIAQLNSKYGKKVLINFFVGTDDKNSTQHIIHFDQPRLGLPSRDYYECTGIYKEACTAYVDFMISVARLIRQEQSLPIDENQLSLEMNKVMELEKEIANATTKPEDRNDPMLLYNKMTLAKLQNNFSLEVNGKSFSWSNFTNEIMSTVNINIQNEEEVVVYAPEYLTKLKPILTKYSPRDLQNLMSWRFIMDLVSSLSRNYKESRNAFRKALYGTTSETATWRRCANYVNGNMENAVGRLYVEAAFAGESKHVVEDLIAQIREVFIQTLDDLTWMDAETKKKAEEKALAIKERIGYPDDIISNENKLNNEYLELNYREDEYFENIIQNLKFSQSKQLKKLREKVDKDEWISGAAVVNAFYSSGRNQIVFPAGILQPPFFSAQQSNSLNYGGIGMVIGHEITHGFDDNGRNFNKDGDLVDWWTQQSANNFKDQSQCMVYQYGNFSWDLAGGQHLNGINTLGENIADNGGIGQAYRAYQNYVKKNGEEKLLPGLDLNHKQLFFLNFAQVWCGTYRPEYAVNSIKTDVHSPGNFRIIGTLQNSAEFADAFHCRKNSYMNPERKCRVW", "values": [{"measurement": "plasma half-life", "setting": "[1]", "value": "long"}, {"measurement": "Plasma exposure", "setting": "[1]; 336 hours", "value": 48, "unit": "µg/mL"}, {"measurement": "Aβ42 levels compared to vehicle", "setting": "[2]; 1.5 hours", "value": 87, "unit": "%"}, {"measurement": "Aβ42 levels compared to vehicle", "setting": "[2]; two weeks (336 hours)", "value": 44, "unit": "%"}, {"measurement": "Plasma exposure", "setting": "[3]; 1.5 hours", "value": 299, "unit": "µg/mL"}, {"measurement": "Plasma exposure", "setting": "[3]; 336 hours", "value": 60, "unit": "µg/mL"}, {"measurement": "Observations of the animal health", "setting": "[4]", "value": "no overt adverse effects"}, {"measurement": "Degradation of Aβ 1-42 compared to plasma without treatment", "setting": "[5]; [11]", "value": 19, "unit": "%"}, {"measurement": "EC50", "setting": "[5]", "value": 180, "unit": "nM"}, {"measurement": "Aβ40 levels compared to vehicle", "setting": "[6]; 1.5 hours", "value": 91, "unit": "%"}, {"measurement": "Aβ40 levels compared to vehicle", "setting": "[6]; two weeks (336 hours)", "value": 58, "unit": "%"}, {"measurement": "Reduction of mouse Aβ40 levels in plasma compared to vehicle", "setting": "[7]", "value": 73, "unit": "%"}, {"measurement": "Degradation of Aβ 1-42 compared to plasma without treatment", "setting": "[8]; [11]", "value": 53, "unit": "%"}, {"measurement": "EC50", "setting": "[8]", "value": 820, "unit": "nM"}, {"measurement": "Degradation of amyloid β 1-40 compared to plasma without treatment", "setting": "[9]; [11]", "value": 71, "unit": "%"}, {"measurement": "EC50", "setting": "[9]", "value": 400, "unit": "nM"}, {"measurement": "Degradation of amyloid β 1-40 compared to plasma without treatment", "setting": "[10]; [11]", "value": 77, "unit": "%"}, {"measurement": "EC50", "setting": "[10]", "value": 340, "unit": "nM"}]}]}
